Assay results: paper PMC5262456 (Science Advances, 2016)
Where a chain is given by its changes, count along the chain named. Names may count otherwise.

T1: Skp (ATP-independent periplasmic chaperone) (UniProt P0AEU7 21-161)
T1 sequence (looked up): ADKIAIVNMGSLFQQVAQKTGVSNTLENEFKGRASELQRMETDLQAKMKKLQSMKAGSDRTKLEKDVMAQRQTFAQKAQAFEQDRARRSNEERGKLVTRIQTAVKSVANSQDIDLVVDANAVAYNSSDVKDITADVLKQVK

T2: SurA (ATP-independent periplasmic chaperone) (UniProt P0ABZ6 21-428)
T2 sequence (looked up): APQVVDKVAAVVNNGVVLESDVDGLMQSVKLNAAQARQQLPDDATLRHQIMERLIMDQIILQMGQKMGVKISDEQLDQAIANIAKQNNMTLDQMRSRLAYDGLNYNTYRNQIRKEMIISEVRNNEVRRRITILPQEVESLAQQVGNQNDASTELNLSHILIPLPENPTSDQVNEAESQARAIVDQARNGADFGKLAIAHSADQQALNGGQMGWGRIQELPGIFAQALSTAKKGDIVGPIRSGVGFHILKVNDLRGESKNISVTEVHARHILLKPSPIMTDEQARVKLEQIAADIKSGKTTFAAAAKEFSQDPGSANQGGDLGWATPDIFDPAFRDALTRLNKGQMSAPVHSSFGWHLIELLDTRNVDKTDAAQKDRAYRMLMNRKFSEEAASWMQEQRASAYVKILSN

T3: Spy M85C with MTSL spin label (UniProt P77754 24-161, M85C, MTSL spin label on cysteine 85)
T3 sequence (looked up): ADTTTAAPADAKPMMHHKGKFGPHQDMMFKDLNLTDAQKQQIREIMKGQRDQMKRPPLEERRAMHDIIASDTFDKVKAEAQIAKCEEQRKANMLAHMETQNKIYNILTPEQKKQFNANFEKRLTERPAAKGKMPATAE

T4: Spy T99C with MTSL spin label (UniProt P77754 24-161, T99C, MTSL spin label on cysteine 99)
T4 sequence (looked up): T3 sequence (looked up) with C85M, T99C

T5: Spy M53C with MTSL spin label (UniProt P77754 24-161, M53C, MTSL spin label on cysteine 53)
T5 sequence (looked up): T3 sequence (looked up) with M53C, C85M

B1: Spy (ATP-independent periplasmic chaperone), wild type (natural protein, UniProt P77754 24-161, looked up)
chain: T3 sequence (looked up) with C85M
B2: Im7U T11C with MTSL spin label (natural protein, UniProt Q03708 1-87, looked up)
chain: MELKNSISDYCEAEFVQAAKEIEKENVAATDDVLDVALEHFVKITEHPDGTDLIYYPSDNRDDSPEGIVKEIKEWRAANGKPGFKQG
modifications: MTSL spin label on cysteine 11
B3: Im7U T30C with MTSL spin label (natural protein, UniProt Q03708 1-87, looked up)
chain: B2 chain with C11T, T30C
modifications: MTSL spin label on cysteine 30
B4: Im7 L18A L19A L37A (Im7U) (natural protein, UniProt Q03708 1-87, looked up)
chain: B2 chain with C11T
B5: Im7, wild type, full length (natural protein, UniProt Q03708 1-87, looked up)
chain: B2 chain with C11T, A18L, A19L, A37L

Experiments:
AUC = target: the molecule itself; test: AUC
[1] = target: B1; test: intramolecular paramagnetic relaxation enhancement
[2] = target: T1, Skp (ATP-independent periplasmic …); test: NMR titration
[3] = target: B1; test: ITC
[4] = target: T2, SurA (ATP-independent periplasmic …); test: NMR titration
[5] = target: T3, Spy M85C with MTSL spin label; test: intermolecular paramagnetic relaxation enhancement
[6] = target: T2, SurA (ATP-independent periplasmic …)
[7] = target: T1, Skp (ATP-independent periplasmic …)
[8] = target: B1; test: SPR
[9] = target: T4, Spy T99C with MTSL spin label; test: intermolecular paramagnetic relaxation enhancement
[10] = target: T5, Spy M53C with MTSL spin label; test: intermolecular paramagnetic relaxation enhancement

Binder: B1
- stoichiometry N (AUC): 2

Binder: B2
- binding result [1]: binds

Binder: B3
- binding result [1]: binds

Binder: B4
- binding result [2]: binds
- Kd [3]: 0.327 µM
- dH [3]: 8.9 ± 0.5 kcal/mol
- binding result [4]: binds
- binding result [5]: binds

Binder: B5
- Kd [6]: 50 µM
- Kd [7]: 66 µM
- Kd [8]: 20.3 ± 3.2 µM
- binding result [5]: binds
- binding result [9]: binds
- binding result [10]: binds
